Assay results: article PMC3660260

Assays:
[1] = target: HCV envelope glycoprotein E2 (in lysate of HCV-infected Huh7.5 cells) (hepatitis C virus (strain not stated)) (UniProt Q99IB8)
[2] = target: HCV envelope glycoprotein E2 (in lysate of HCV-infected Huh7.5 cells) (hepatitis C virus (strain not stated)) (UniProt Q99IB8); remark: listed apart in the source

Sequence of UniProt Q99IB8 (Q99IB8 384-750): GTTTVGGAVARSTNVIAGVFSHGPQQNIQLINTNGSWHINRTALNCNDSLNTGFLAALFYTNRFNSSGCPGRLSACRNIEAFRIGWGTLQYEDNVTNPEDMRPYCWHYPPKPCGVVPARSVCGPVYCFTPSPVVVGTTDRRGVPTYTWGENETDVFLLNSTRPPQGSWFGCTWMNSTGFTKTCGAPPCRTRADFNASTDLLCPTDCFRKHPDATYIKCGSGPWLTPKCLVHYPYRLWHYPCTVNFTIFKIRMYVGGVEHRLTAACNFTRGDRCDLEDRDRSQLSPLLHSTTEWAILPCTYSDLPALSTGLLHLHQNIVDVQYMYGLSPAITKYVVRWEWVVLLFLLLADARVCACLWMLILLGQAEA

| Substance | EC50 for inhibition of HCV JFH-1 (genotype 2a) in the HCVcc full-replication assay in Huh7.5.1 cells (HCV core protein in supernatant) [1] [nM] | EC50 for inhibition of replication of JFH-1 (genotype 2a) HCVcc in Huh7.5.1 cells [2] [nM] | EC50 for inhibition of replication of the J6/JFH-1 HCVcc chimera (structural genes of genotype 2a J6) in Huh7.5.1 cells [2] [nM] | EC50 for inhibition of replication of the TH/JFH-1 HCVcc chimera (structural genes of genotype 1b TH) in Huh7.5.1 cells [2] [nM] |
| --- | --- | --- | --- | --- |
| griffithsin (from UniProt P84801 1-121) (natural protein) | 0.4 | 0.3 | 14 | 2.2 |
| scytovirin (from UniProt P86041 1-95) (natural protein) | 16.9 | 3.2 | 50.8 | 57.5 |
